Protein production data for 21 sequences are collected here from a protein production outcome set (Wang et al. 2014).

The data set is described as follows: label from the status in PepcDB records.
For the sequence “MITLTTDFGLKGPYVGEMKVAMLRINPNAKIVDVTHSVTRHSILEGSFVMEQVVKYSPKGTVHVGVIDPGVGTERRAIVIEGDQYLVVPDNGLATLPLKHIKVKSVYEIIPDKIRKFTGWEISSTFHGRDIFGPAGALIEKGIHPEEFGREIPVDSIVKLNVEPRKEGDVWILKVIYIDDFGNVILNLENYEKPRTVELLDFNLRLPYLETYGLVEKGEMLALPGSHDYLEIAVNMGSAAERLNVKVGDELRVRLL”, the protein production entry is on record as “not failed”.
“MQFFDGYHYHGTTFEQSYRCYPASFIDKPQLESGDKIIMPPSALDRLASLHIDYPMLFELRNAGIERVTHCGVLEFIAEEGMIYMPYWMMQNLLLQEGDIVRVRNVTLPKGTYVKLQPHTTDFLDISNPKAILETALRNYSCLTSGDSIMVPYNNKKYFIDIVETKPANAISIIETDCEVDFAPPLDYKEPERPTAPSAAKGPAKAEEVVDEPEPKFNPFTGSGRRLDGRPLAYEPAPASSSKGKQPVVANGNGQSSVASSSEKATRAQGKLVFGANGNRAPKEAAPKVGAAKETKKEEQEKKDEPKFQAFSGKKYSLRG”: the protein production result was “not failed”.
As to “MFTAYKKFWTNYVNFTGRSSRSDYWWAILCNSLIILPFVFTATSIFYSNLIEFIRGSAISTFSGEESVLSVYSIDVIILFIIIVLFSLAILLPNLAISIRRLRDAGFHWSLIFVPIGAALFSFLGLIPFLRAIVSIIVWFALIFYYILLCQPSKPYQAPVQPIAPQQPQQMAPQGQPVQAQVQPQSQTTPQQPQTPPVQQPQAPTNQQ”, the protein production result is listed as “failed”.
In the case of “MKMNNTKEYSIRTPSLGNLPPGTTGTCCPPPLVFPLLPLSPPPSPPPSPSSPPRLPPPFPALFPPEPPLPPRFELPPPLFPPPPLPRLPPPLLPPPEEPPREPPPPPPPPEEPPPPASCLRTKSPENGIVSTVK”, the protein production result is “failed”.
The result for “MYLNPKLSYMQFFMGFLFVITFILATFNICSYLVAIVCMALLNLTFVIGAFQQKQYTSFVIALVMSFSFSIVAIVFYIK” reads “failed”; that for “MNHTSDTALLIVNLGTPEAPTAAAVRRYLGEFLSDRRVVSIPPLFWKPLLHMVILPIRGPRSASKYAKVWLQEGSPLSVYTRRIAEGLTQHLPDWRVAWAMRYGAPALTKALDALQAQQVRRIVILPLYPQYSTTTTASVQDVVEAWCKRTPQVQVECIQDYAEDPAWVAAVAASIRRHWQAHGRSEKLMFSFHGLPQRVANNGDPYPQRCQVSASLIAAALNLNESEWVLGYQSRFGAERWLQPYAEPTLWALAESGIRRFDLVCPGFSVDCLETLEEVALGFSETLAARGATMRYIPCLNDDPAHVQALAGLAQRALP”, “failed”; that for “MSIDFYNQNASSFYASTVEVDSSSLLEQFTPYLPKGGSVLDAGCGSGRDSKRLIELGFHVDAFDASAALATLAQQLLGKPVRVATFMQFTSTLQYDGIWACASLLHVSKASLPDAFAHLASMLKSGGAFYCSFKYGQGEVERDGRSFTHCDEALLAELLTGSPLVIDKVWLTTDLRVGRENEQWLNAVLLKRLEHHHHHH”, “not failed”.
The result for “MKNLEKCILCGSHNIVPHWKNVRSYNVSKCLDCSFLFLHEIIDDHELENYYSQSYFMASYAKTENNLIDAANNPKITAEAKEYANLIKLHHPEAHNVGEIGCSWGYLLYNLQNFGYSAKGFELSKTTAEMGSKQLGINITSGFFETQYNQFDVLILRHVLEHVPDPQDLLEKIYDSIKKDGLFILEGPNLDSISSRLFGKNVSWVSPPDHISFPNFISLIMACEKLGFTCIHKSSRRGRGISIFHQALLNSVGLMFGGKEKAKVNLGGINEKPNNQQLSSLKSAALKIVDFLDFLSSPMQPFLKQALLEEEMLIIFKKLEHHHHHH” reads “failed”.
Consider “DISEELDYERGRYLDAMIDNHKYTGKARAIIYGQPELALALAKVCFENGVNVKLIALGAKNKILEEALKEEIKSQREEVLVLDDTDFDTIEKYAKEFNVNLFIGNSDGRRMASRLGIEIIRVGFPIHDRV”, for which the protein production entry was “failed”.
The value for “APEERDLTQEQTEKLLQFQDLTGIESMDQCRHTLEQHNWNIEAAVQDRLNEQEG” was “not failed”.
“MGETTVGHVAGEVVRALYGAGYMESTIGQYRKSIRALERYAGGPDAVYTRGLGAGFAASTFSERTGGFSRQRWFDYGRLARLCDSYLRSGSVDLGKWRRSRLAEPVVPGLAVVMERWEAYLAGSGLASATVGHYRRMAGLFLTWLESHGVVSLDGSDGSHVLGFLAGLRSRWSESSMRHAASDLRPLFRWLGRDDLADAIGLAGIRRTHAIAGTLPDDEHRRLLEACASRSVPSRDAAITLLSLTCGLRACDVIGLRIADVDWDSMSIGLVQRKTGNPLTVPMTGPLAARLASWLLDERPATDDDRVFVRYKAPHVALRGHSSVYEAISRVMRHAGLGRRGGSRLLRRNAATRMLEAATPLPTISAVLGHADPDSTRVYMATHRGGMLACVLPVPEGGSS”: the protein production entry was “failed”.
Take “SPARPFTVRAPASSANLGPGFDSLGLSVPLYTTLRVTPQDKAEVVPLGTELADTPADESNYVYRAMTLAAKRAGRTLPPARVEIETEVPLARGLGSSAAALVAGVVAGNELLGRPLDDETVLDVTAREEGHPDNVAPALFGGIVVATLDKLGTHY”: the protein production result was “failed”.
The result for “MSEFHSEISTLSPAPLWQFFDKICSIPHPSKHEEALAQYIINWATEQGFDVRRDPTGNVFIKKPATPGMENKKGVVLQAHIDMVPQKNEDTDHDFTKDPIQPYIDGEWVTAKGTTLGADNGIGMASCLAVLASKDIKHGPIEVLLTIDEEAGMTGAFGLEAGWLEGDILLNTDSEQEGEVYMGCAGGIDGAMTFDIKRDAIPTGFVTRQLTLKGLKGGHSGCDIHTGRGNANKLLGRFLAGHAQELDLRLVEFRGGSLRNAIPREAFVTVAVPAENQEKLAELFNYYTELLKAELGKVETGIVTFNEEIVTESQAFTAADQQRFIAALNACPNGVMRMSDEIEGVVETSLNVGVITTEENKVTVLCLIRSLIDSGRSQVESMLRSVAELAGAQVEFSGAYPGWKPDADSEIMAIFRDMYEGIYGHKPNIMVIHAGLECGLFKEPYPNMDMVSFGPTIKFPHSPDEKVKIDTVQLFWDQMVALLEAIPEKALEHHHHHH” reads “not failed”; that for “MAGNFDSEERSSWYWGRLSRQEAVALLQGQRHGVFLVRDSSTSPGDYVLSVSENSRVSHYIINSSGPRPPVPPSPAQPPPGVSPSRLRIGDQEFDSLPALLEFYKIHYLDTTTLIEPVSRSRQGSGVILRQEEAEYVRALFDFNGNDEEDLPFKKGDILRIRDKPEEQWWNAEDSEGKRGMIPVPYVEKYRPASASVSALIGGNQEGSHPQPLGGPEPGPYAQPSVNTPLPNLQNGPIYARVIQKRVPNAYDKTALALEVGELVKVTKINVSGQWEGECNGKRGHFPFTHVRLLDQQNPDEDFS”, “failed”; that for “MIIGLLNQKGGVGKTTLSVNLAASFARTGARVLLIDVDPQGSALDWAAAREGAPLFPVVGLPRATVHKEITQIGHNYDHIIIDGPPRVTDLARSALMASDFVLIPVQPSPYDIWAADGIVKLIDEARVYKENLKSAFVINRKIVNTAIGRDVGEALGVYPVHVLSANVAQRVIFAEAATQGKTVYEVDKQGLAAAEIEAVAAEIKELAQLEHHHHHH”, “not failed”.
For “MSSVINYEKFEKIDISSSDDDNKKKLNPHLTKLDNKDKVVIGPNGLTILKNNNDEKIKHDKYNNTSKNVEEIKDKNDEYKTIYNETNNEILNNKNDNIHVQNMNNYVADDKKYKDMFINGAVVPYEYIWNQSIHYINAFICLPLNCKAKNLIVDIKEDKLIVKIKNYKCGIIYNNNNNNNKTNQHNTQSNSFHDNVEILVDKKFPFKINTDEDTQIWEIKNMQINWYTLFNLSNEINNQNVHYLFEDYNMLDKQETFLYISVKKINEIENAYIWWSTLFKNEHPIKIENLPSRSSTNKAKKTMNSFKTAWDEAHEIFKKNISMKQLPFRIDSS”, the protein production entry was “failed”.
For the sequence “MPQDVMTANHVSPSNDAAAPSALDLARNQRLSLMDLLSVSEALNAAGQQAAAAELYKTWVAFNDNNPTIHLAYFNYAVMLNQLGDRAGAVQAFRACLKANPEFAPGHINLGRALEDAGLIGHAVEQWSHYAEVTKNVDAETIGHRHMTLQNMGRVLEGAGKLEEAETALLQAFELRPELPEAGQHWASLRQRQCKWPVLAPSNHISPRKMLDAMSSLTLSCYADDPMFQLAKAYRLSKTLIGARPDLSRFPRRSPKQKSGTGQRLRVGYLSSDLRDHAVGFALCEVLELHDKDSLEVFAYYCGNVRGTDSTQERIKAAVHCWRDIHGVDDATAASQIIADEIDILIDVNGYTKDARAKIFAYRPAPVIVSFCGYPGSMGSPFHQYLISDGYMIPPENEIYYSEKVLRIACDQPLDRKRPVAARPSRADVGLPEDAFVYASFNGMQKITENCFARWMTILSETPGSLLWLLTGDDDVNQRLRDLAEKSGVASERLVFAPKAQNPQHIARIGLADLFLDTFPYGAHSTASDAITSGLPVLTMYGKTFAARFCGSIVTAAGVPEMICSSPEDYVARAIGFERDRQSLLEVRESIARQRETSVLRDIPALARRLEELFWQMQGECERGETPVPDLSNLDIYYEAGAEALLENIEFEDEQSYRERYLKKLRQWHDYAPIPYDRRLWQNPDN”, the protein production result is “failed”.
In the case of “MKYYDEVPIIRSVAAMLVVAIHTVNSIALSRGTFTSDGLGYVNQIARLGTPIFAVISAFLLTISVVNKGFNLDYFVKSRFSKIFIPYIIWTVFYLLYRAFYLHNLEDDGKLLNYFVYGKANFHLYFILTVIQFYFLFPLLQKFKKGWPIIIVYILATIANIIWIRMGPVSLGGGGVERFVNDKLFIMNWISFFMLGIVYAKFYNEIRILIFKHKAILSTIIGILFIDFLLSIDLDHLQSSITVSNMIYIPFFIVFLNYLYEHVKKNHTILKTLTLIGNYSMGIYLVHYVAIQFVKRLPIIEDIVPQSKFMGVFILTVAVSVLIVYLIGKIPYGNYIVPIPKKKATQTTDVDKKKVTQSKHTPNYNS”, the protein production result was “failed”.
The value for “MDKKSKPDWAGESLLSNFVNLLIQTKPIYGVMKQQARQVLIKTAEKNGIPWRKNYEALQVSPAKKLLAAVTNPHVIYPDYYKVPFHAYTEGNLCWDAAFETESATYAMALRVWPQENLTWEAAHARLRGTFHDALETYAPQQVRDILDIGCSVGVSTLALHRYYQRRERYPVRTVGLDLSPYMLAVAKTRDVNSEISEWLHARAENTGLPDKSFDLVTIQFVTHELPGYVSQEIFAEAKRLLRPGGYIALVDNNPRSPVIQNLPPVLFTLMKSTEPWSDDYYTFDIEAALQAVGFAPPITVPSDPRHRTIIARKPD” was “failed”; that for “MSQIEAVFFDCDGTLVDSEVICSRAYVTMFRQFDITLELTEVFRRFKGVKLYEIIDTISKEHGVALAKAELEPVYRAEVARLFDTELEAIAGANTLLESIKTPMCVVSNGPVSKMQHSLGKLGMLHHFPDLLFSGYDIQRWKPDPALMLHAANAMKVNVEKCILVDDSSAGAQSGIAAGMEVFYFCADPHNKPIDHPNVTTFTDLAQLPGLWKAR” was “failed”; that for “MKAPRLIGAEIFRHSSYGRWHPLRVPRVSTVMDLSRAMGWLPPAQFITAPRAKPKALLAWHTADYIAALQRVEATQEATPHDTQRHDIGTVTNPVYPEIFRRPATAAGGSLLAGELLREGGIIYNPPGGTHHGMPDRANGFCYLNDPVLAMLSLRRNGVQRIAYVDIDAHHCDGVAAGFHGDPQCLMISVHEEGLWPRTGLLEDTAGGAGLNLPVPRGLNDTEMAYIRDRLILPQVEAFRPDAVVLLCGADGVEEDPLAHLCLSNNAHWAVTKALMGIAPRMLVLGGGGYNPWSVGRLWTGVWATLNGHDIPDRLPPEAQAVLRALRFEGNRRGKNPPEHWFTTLRDAPRPGPVRSDITDRVAELSRKAARLRLDH” was “failed”.
